# From PMC7583250, “Type III ATP synthase is a symmetry-deviated dimer that induces membrane curvature through tetramerization” (Nature Communications, 2020)
# T1: ATPTT1 (Tetrahymena thermophila, UniProt I7LVQ8)
# T1 construct: gene TTHERM_00137990; 55-kDa Fo-wing subunit of native mitochondrial ATP synthase dimer, purified in digitonin from T. thermophila mitochondria
# T1 sequence (I7LVQ8 1-480): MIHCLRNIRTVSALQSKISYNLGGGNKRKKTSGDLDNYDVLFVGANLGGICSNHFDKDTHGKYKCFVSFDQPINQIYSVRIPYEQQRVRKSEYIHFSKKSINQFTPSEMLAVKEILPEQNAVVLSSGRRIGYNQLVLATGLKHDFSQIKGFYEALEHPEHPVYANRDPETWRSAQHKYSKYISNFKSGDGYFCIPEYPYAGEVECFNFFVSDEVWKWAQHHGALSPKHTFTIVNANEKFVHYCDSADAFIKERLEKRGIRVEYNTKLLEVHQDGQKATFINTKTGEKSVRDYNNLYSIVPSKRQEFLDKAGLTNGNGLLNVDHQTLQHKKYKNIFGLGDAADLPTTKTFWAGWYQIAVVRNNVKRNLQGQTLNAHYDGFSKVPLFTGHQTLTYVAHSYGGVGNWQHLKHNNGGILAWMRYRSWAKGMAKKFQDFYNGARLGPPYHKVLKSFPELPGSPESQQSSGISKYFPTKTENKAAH
# B1: ATP synthase subunit-a (natural protein, UniProt Q951C1 1-446, looked up)
# chain: MGRENVLPVHNDVYEDFVFTTPYFQPESTFKSVPKLFSDILLGGVEWVYTTSESVLAYDYKLWYLWSGVSNLDESFDMFFNQYWALSLSTSVFQLFYAVILDRYLSVLFQNTPYTNDWFRMMLHSKETALIWLYHPELSWHINGLNQFFTYFYGGILEFVYFDKSNPDMCILVHTLWIHLLILFLIFTGFVTILFSFYGNPNTEENTIDSDYLAASGTVEAEKEITSIDDYLGLVFAIAYVFGVFFYVHGWTSMLSHAVLLLSCYSIIIMFLFILGMPTLLLYDFGIFFLAYLKGAGKYISSVAEMMFDYTACLVFYIRILAQWIRVVLMVVTFISLSHYVSDFDITNSALIGSENQSDSMNELNTNFSMTYYILTVLPGKFIYWIYEILHTFFVVCSQFVAFFAIVFWLFLFLYTFFIIEKHEDFFSKKREERKKKLKELWNLKN
# notes: ATP synthase subunit a, Tetrahymena thermophila; overall length of 446 amino acids, with 170- and 38-amino acid N- and C-terminal extensions; source: endogenous, purified from T. thermophila mitochondria within the ATP synthase (digitonin, sucrose cushion, Superose 6)
# Tests used:
# [1] = target: type III mitochondrial F1Fo-ATP synthase (monomer) in complex with IF1 (Tetrahymena thermophila (endogenous in its mitochondria)) (UniProt Q951C1); assay: cryo-EM structure; native IF1-inhibited ATP synthase dimer purified from T. thermophila mitochondria in digitonin (25 mM Hepes/KOH pH 7.5, 25 mM KCl, 5 mM MgCl2, 0.1% w/v digitonin); 2.7 Å overall, masked refinements 2.5-3.1 Å
# [2] = target: type III mitochondrial F1Fo-ATP synthase (monomer) in complex with IF1 (Tetrahymena thermophila (endogenous in its mitochondria)) (UniProt Q951C1); assay: cryo-EM structure; native ATP synthase tetramer particles of the same sample; 3.3 Å overall, Fo tetramer membrane region 3.1 Å; two dimer models refined into the Fo-tetramer map
# ATPTT1 = target: T1, ATPTT1; assay: cryo-EM structure; type: binding; settings: co-purified native cofactor in pocket of two Rossmann folds; oxidation state not stated
# [3] = target: F1 inhibitor protein IF1 (Tetrahymena thermophila (endogenous in its mitochondria)); assay: cryo-EM structure; native IF1-inhibited ATP synthase dimer purified from T. thermophila mitochondria in digitonin (25 mM Hepes/KOH pH 7.5, 25 mM KCl, 5 mM MgCl2, 0.1% w/v digitonin); 2.7 Å overall, masked refinements 2.5-3.1 Å
# [4] = target: the molecule itself; assay: as above
molecule,measurement,setting,value
type III mitochondrial F1Fo-ATP synthase (monomer) in complex with IF1 (from UniProt Q951C1 1-446),stoichiometry N,[1],2
same,stoichiometry N,[2],4
NC(=O)c1ccc[n+]([C@@H]2O[C@H](COP(=O)([O-])OP(=O)(O)OC[C@H]3O[C@@H](n4cnc5c(N)ncnc54)[C@H](O)[C@@H]3O)[C@@H](O)[C@H]2O)c1 [NAD],cryo-EM structure,ATPTT1,in ATPTT1 the binding pocket formed by two Rossmann folds contains the co-factor
F1 inhibitor protein IF1 (natural protein),stoichiometry N,[3],2
B1,binding result,[4],binds
